Test results taken from PMC12638876.

What was measured:
[1] = target: CXE15 C14S fused to split YFP (Arabidopsis thaliana) (UniProt Q9FG13); test: split reporter
[2] = target: full-length Arabidopsis thaliana CXE15 (Arabidopsis thaliana) (UniProt Q9FG13); test: MST
[3] = target: CXE15 C14S mutant (Arabidopsis thaliana) (UniProt Q9FG13); test: MST

Question: Which fold reduction of BiFC fluorescence against wild-type CXE15 [1] does the source give for “CXE15 C14S fused to split YFP (from UniProt Q9FG13 1-329) (enzyme)” here?
Answer: > 2 fold

Question: How did the Kd [2] turn out when “full-length Arabidopsis thaliana CXE15 (from UniProt Q9FG13 1-329) (enzyme)” was run?
Answer: 1.62 µM

Question: For “CXE15 C14S mutant (from UniProt Q9FG13 1-329) (enzyme)”, which Kd [3] is on record?
Answer: 4.5 µM
